From patent US20250206836A1 (ONA THERAPEUTICS S L, published 2025)

Experiments:
[1] = target: T1, human CD36 (on HEK 293 or SCC25 cells) (human, UniProt P16671 2-472); experiment: FACS, HEK 293 cells transiently overexpressing human CD36
T1 construct: Overexpressed transiently or stably on HEK 293 cells, or stably on SCC25 cells; also called huCD36
Procedure: After incubation with the cells, an anti-human fluorescently labelled antibody was added to the cell media, allowed to incubate further, and the unbound antibody was washed off of the cells. Subsequently, the cells were subjected to FACS analysis to determine antibody binding to the cells. The results were fitted to a sigmoidal titration curve. Using a nonlinear regression model, the EC₅₀ values for each antibody were calculated from the GeoMFI and MFI values using the log(agonist) versus response (four parameters) fitting on the data transformed according to X=Log[X] in GraphPad PRISM.
After transiently transfecting the HEK 293 cells with a CD36 expression construct, cells were treated with three-fold serial dilution of each candidate antibody (10 dilutions starting at 500 nM). […] Antibody binding to cells was measured by FACS as above.

[2] = target: T1, human CD36 (on HEK 293 or SCC25 cells); experiment: FACS, HEK 293 cells transiently overexpressing CD36;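 further: antibody binding to transfected cells detected by flow cytometry with a fluorescent anti-human secondary antibody, EC50 from a four-parameter sigmoidal fit of mean fluorescence intensity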
Procedure: (§1) After transiently transfecting the HEK 293 cells with a CD36 expression construct, cells were treated with three-fold serial dilution of each candidate antibody (10 dilutions starting at 500 nM). […] After incubation with the cells, an anti-human fluorescently labelled antibody was added to the cell media, allowed to incubate further, and the unbound antibody was washed off of the cells. Subsequently, the cells were subjected to FACS analysis to determine antibody binding to the cells. The results were fitted to a sigmoidal titration curve. Using a nonlinear regression model, the EC₅₀ values for each antibody were calculated from the GeoMFI and MFI values using the log(agonist) versus response (four parameters) fitting on the data transformed according to X=Log[X] in GraphPad PRISM.

[3] = target: T2, mouse CD36 (on HEK 293 cells) (mouse, UniProt Q08857 1-472); experiment: as above
T2 construct: also called Murine CD36
Procedure: as §1

[4] = target: T3, nonhuman primate CD36 (on HEK 293 cells) (cynomolgus monkey / rhesus macaque, UniProt P16671 2-472 (human entry)); experiment: as above
T3 construct: also called non-human primate CD36 (cynomolgus)
Procedure: as §1

human CD36 (His-tagged) = target: T4, human CD36 (His-tagged) (human, UniProt P16671 30-439); experiment: SPR (Biacore T200), His-captured CD36, bivalent analyte model
T4 construct: not shown: His tag

[5] = target: T1, human CD36 (on HEK 293 or SCC25 cells); experiment: cell-based or functional assay
[6] = target: T1, human CD36 (on HEK 293 or SCC25 cells); experiment: cell-based or functional assay; remark: listed apart in the source
[7] = target: purified biotin-tagged human CD36 (human, UniProt P16671 30-439, limits assumed, biotin tag, site not stated); experiment: AlphaScreen competition; competitor 1G04 on acceptor beads;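 further: streptavidin donor beads excited at 680 nm release singlet oxygen, and the light signal needs a nearby acceptor bead, with 30 min donor-bead incubation at 25 °C in the dark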
[8] = target: T1, human CD36 (on HEK 293 or SCC25 cells); experiment: cell-based or functional assay; remark: listed apart in the source
[9] = target: T1, human CD36 (on HEK 293 or SCC25 cells); experiment: FACS, SCC25 cells stably overexpressing human CD36
Procedure: as §1
Wherever Percent Fatty Acid Uptake Inhibition is given: test concentration or dose not given here.

T4 sequence (P16671 30-439 limits assumed): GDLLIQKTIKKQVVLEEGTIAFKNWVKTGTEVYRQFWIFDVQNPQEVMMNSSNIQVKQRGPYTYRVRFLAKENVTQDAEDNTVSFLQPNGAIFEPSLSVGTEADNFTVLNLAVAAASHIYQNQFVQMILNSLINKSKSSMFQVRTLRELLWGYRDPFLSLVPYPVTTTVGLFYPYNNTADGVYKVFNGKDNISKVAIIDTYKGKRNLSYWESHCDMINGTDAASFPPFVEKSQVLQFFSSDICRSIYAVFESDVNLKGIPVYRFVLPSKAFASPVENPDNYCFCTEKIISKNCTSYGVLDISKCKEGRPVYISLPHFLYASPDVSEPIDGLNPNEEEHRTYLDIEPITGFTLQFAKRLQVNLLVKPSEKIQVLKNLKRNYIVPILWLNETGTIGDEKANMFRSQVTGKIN
T1 sequence (P16671 2-472 limits assumed): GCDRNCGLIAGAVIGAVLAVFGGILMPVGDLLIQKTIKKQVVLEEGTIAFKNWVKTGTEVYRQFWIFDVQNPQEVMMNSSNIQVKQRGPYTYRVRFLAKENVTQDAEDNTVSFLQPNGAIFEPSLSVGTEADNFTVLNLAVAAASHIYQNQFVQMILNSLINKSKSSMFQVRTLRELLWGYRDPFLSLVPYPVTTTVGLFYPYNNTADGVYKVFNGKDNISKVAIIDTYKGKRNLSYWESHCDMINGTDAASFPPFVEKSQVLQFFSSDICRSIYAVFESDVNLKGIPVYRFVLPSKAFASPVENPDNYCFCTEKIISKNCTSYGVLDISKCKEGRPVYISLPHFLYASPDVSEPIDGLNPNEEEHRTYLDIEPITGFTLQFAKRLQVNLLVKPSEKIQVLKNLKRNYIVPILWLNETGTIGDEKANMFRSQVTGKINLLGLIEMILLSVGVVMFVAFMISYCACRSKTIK
T2 sequence (Q08857 whole entry): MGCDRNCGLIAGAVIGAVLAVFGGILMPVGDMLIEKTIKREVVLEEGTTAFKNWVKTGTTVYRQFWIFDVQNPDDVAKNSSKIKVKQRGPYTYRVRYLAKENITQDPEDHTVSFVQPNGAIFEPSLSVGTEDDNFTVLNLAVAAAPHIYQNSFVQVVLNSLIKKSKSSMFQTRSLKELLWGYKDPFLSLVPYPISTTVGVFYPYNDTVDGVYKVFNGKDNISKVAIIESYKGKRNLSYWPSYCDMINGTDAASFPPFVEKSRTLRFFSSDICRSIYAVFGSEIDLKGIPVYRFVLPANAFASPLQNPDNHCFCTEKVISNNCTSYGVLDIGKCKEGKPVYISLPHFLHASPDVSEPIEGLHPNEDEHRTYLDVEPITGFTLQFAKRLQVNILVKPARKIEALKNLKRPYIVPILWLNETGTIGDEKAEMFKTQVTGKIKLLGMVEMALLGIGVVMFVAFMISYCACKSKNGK
Sequence of purified biotin-tagged human CD36 (P16671 30-439 limits assumed): as the sequence (P16671 30-439 limits assumed) above
T3 sequence (P16671 other isoform, or with tags, fused parts or gaps limits assumed): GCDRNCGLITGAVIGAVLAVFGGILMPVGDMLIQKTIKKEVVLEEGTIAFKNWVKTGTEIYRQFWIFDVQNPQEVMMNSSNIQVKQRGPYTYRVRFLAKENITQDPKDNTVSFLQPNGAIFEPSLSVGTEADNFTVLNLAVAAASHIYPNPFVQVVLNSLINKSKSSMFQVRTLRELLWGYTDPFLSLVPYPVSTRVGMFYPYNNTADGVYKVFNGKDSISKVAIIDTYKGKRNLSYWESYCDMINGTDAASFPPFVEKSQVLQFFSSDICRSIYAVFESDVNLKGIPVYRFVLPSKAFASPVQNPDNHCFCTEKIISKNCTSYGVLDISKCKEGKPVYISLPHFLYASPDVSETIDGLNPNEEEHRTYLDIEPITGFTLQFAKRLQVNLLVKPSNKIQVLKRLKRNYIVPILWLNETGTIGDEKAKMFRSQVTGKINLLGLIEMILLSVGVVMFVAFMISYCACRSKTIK

B1: 73G06 (antibody, human IgG1, kappa)
heavy: EVQLVQSGAEVKKPGSSVKVSCKASGYRFSDYEMQWVRQAPGQGLEWMGGIDPETGGIAYAQKFQGRVTLTADKSTSTAYMELSSLRSEDTAVYYCTRKLDFDYWGQGTLVTVSSASTKGPSVFPLAPSSKSTSGGTAALGCLVKDYFPEPVTVSWNSGALTSGVHTFPAVLQSSGLYSLSSVVTVPSSSLGTQTYICNVNHKPSNTKVDKKVEPKSCDKTHTCPPCPAPESTRGPSVFLFPPKPKDTLYITREPEVTCVVVDVSHEDPEVKFNWYVDGVEVHNAKTKPREEQYNSTYRVVSVLTVLHQDWLNGKEYKCKVSNKALPAPIEKTISKAKGQPREPQVYTLPPSRDELTKNQVSLTCLVKGFYPSDIAVEWESNGQPENNYKTTPPVLDSDGSFFLYSKLTVDKSRWQQGNVFSCSVMHEALHNHYTQKSLSLSPGK
light: ETTVTQSPAFMSATTGDKVTISCITSTDIDDDMNWYQQKPGEPPKLLISEGNTLRPGVPSRFSSSGYGTDFTFTINNIESEDAAYYYCLQSDNLPLTFGQGTKLEIKRTVAAPSVFIFPPSDEQLKSGTASVVCLLNNFYPREAKVQWKVDNALQSGNSQESVTEQDSKDSTYSLSSTLTLSKADYEKHKVYACEVTHQGLSSPVTKSFNRGEC
notes: Humanized 11G04, human IgG1 STR
- EC50 [1]: 870 pM

B2: 75G06 (antibody, human IgG1, kappa)
heavy: EVQLVQSGAEVKKPGSSVKVSCKASGYRFSDYEMQWVRQAPGQGLEWMGGIDPETGGIAYAQKFQGRVTLTADKSTSTAYMELSSLRSEDTAVYYCTRKLDFDYWGQGTLVTVSSASTKGPSVFPLAPSSKSTSGGTAALGCLVKDYFPEPVTVSWNSGALTSGVHTFPAVLQSSGLYSLSSVVTVPSSSLGTQTYICNVNHKPSNTKVDKKVEPKSCDKTHTCPPCPAPESTRGPSVFLFPPKPKDTLYITREPEVTCVVVDVSHEDPEVKFNWYVDGVEVHNAKTKPREEQYNSTYRVVSVLTVLHQDWLNGKEYKCKVSNKALPAPIEKTISKAKGQPREPQVYTLPPSRDELTKNQVSLTCLVKGFYPSDIAVEWESNGQPENNYKTTPPVLDSDGSFFLYSKLTVDKSRWQQGNVFSCSVMHEALHNHYTQKSLSLSPGK
light: ETTVTQSPAFMSATPGDKVTISCITSTDIDDDMNWYQQKPGEPPKLLISEGNTLRPGVPSRFSSSGYGTDFTFTINNIESEDAAYYYCLQSDNLPLTFGQGTKLEIKRTVAAPSVFIFPPSDEQLKSGTASVVCLLNNFYPREAKVQWKVDNALQSGNSQESVTEQDSKDSTYSLSSTLTLSKADYEKHKVYACEVTHQGLSSPVTKSFNRGEC
notes: as for B1
- EC50 [1]: 980 pM

B3: 74G06 (antibody, human IgG1, kappa)
heavy: QVQLVQSGAEVKKPGSSVKVSCKASGYRFSDYEMQWVRQAPGQGLEWMGGIDPETGGIAYAQKFQGRVTLTADKSTSTAYMELSSLRSEDTAVYYCTRKLDFDYWGQGTLVTVSSASTKGPSVFPLAPSSKSTSGGTAALGCLVKDYFPEPVTVSWNSGALTSGVHTFPAVLQSSGLYSLSSVVTVPSSSLGTQTYICNVNHKPSNTKVDKKVEPKSCDKTHTCPPCPAPESTRGPSVFLFPPKPKDTLYITREPEVTCVVVDVSHEDPEVKFNWYVDGVEVHNAKTKPREEQYNSTYRVVSVLTVLHQDWLNGKEYKCKVSNKALPAPIEKTISKAKGQPREPQVYTLPPSRDELTKNQVSLTCLVKGFYPSDIAVEWESNGQPENNYKTTPPVLDSDGSFFLYSKLTVDKSRWQQGNVFSCSVMHEALHNHYTQKSLSLSPGK
light: ETTVTQSPAFMSATTGDKVTISCITSTDIDDDMNWYQQKPGEPPKLLISEGNTLRPGVPSRFSSSGYGTDFTFTINNIESEDAAYYYCLQSDNLPLTFGQGTKLEIKRTVAAPSVFIFPPSDEQLKSGTASVVCLLNNFYPREAKVQWKVDNALQSGNSQESVTEQDSKDSTYSLSSTLTLSKADYEKHKVYACEVTHQGLSSPVTKSFNRGEC
notes: as for B1
- EC50 [1]: 1100 pM

B4: 76G06 (antibody, human IgG1, kappa)
heavy: QVQLVQSGAEVKKPGSSVKVSCKASGYRFSDYEMQWVRQAPGQGLEWMGGIDPETGGIAYAQKFQGRVTLTADKSTSTAYMELSSLRSEDTAVYYCTRKLDFDYWGQGTLVTVSSASTKGPSVFPLAPSSKSTSGGTAALGCLVKDYFPEPVTVSWNSGALTSGVHTFPAVLQSSGLYSLSSVVTVPSSSLGTQTYICNVNHKPSNTKVDKKVEPKSCDKTHTCPPCPAPESTRGPSVFLFPPKPKDTLYITREPEVTCVVVDVSHEDPEVKFNWYVDGVEVHNAKTKPREEQYNSTYRVVSVLTVLHQDWLNGKEYKCKVSNKALPAPIEKTISKAKGQPREPQVYTLPPSRDELTKNQVSLTCLVKGFYPSDIAVEWESNGQPENNYKTTPPVLDSDGSFFLYSKLTVDKSRWQQGNVFSCSVMHEALHNHYTQKSLSLSPGK
light: ETTVTQSPAFMSATPGDKVTISCITSTDIDDDMNWYQQKPGEPPKLLISEGNTLRPGVPSRFSSSGYGTDFTFTINNIESEDAAYYYCLQSDNLPLTFGQGTKLEIKRTVAAPSVFIFPPSDEQLKSGTASVVCLLNNFYPREAKVQWKVDNALQSGNSQESVTEQDSKDSTYSLSSTLTLSKADYEKHKVYACEVTHQGLSSPVTKSFNRGEC
notes: as for B1
- EC50 [1]: 880 pM

B5: 77G06 (antibody, human IgG1, kappa)
heavy: EVQLVQSGAEVKKPGSSVKVSCKASGYRFSDYEMQWVRQAPGQGLEWMGGIDPETGGIAYAQKFQGRVTLTADKSTSTAYMELSSLRSEDTAVYYCTRKLDFDYWGQGTLVTVSSASTKGPSVFPLAPSSKSTSGGTAALGCLVKDYFPEPVTVSWNSGALTSGVHTFPAVLQSSGLYSLSSVVTVPSSSLGTQTYICNVNHKPSNTKVDKKVEPKSCDKTHTCPPCPAPESTRGPSVFLFPPKPKDTLYITREPEVTCVVVDVSHEDPEVKFNWYVDGVEVHNAKTKPREEQYNSTYRVVSVLTVLHQDWLNGKEYKCKVSNKALPAPIEKTISKAKGQPREPQVYTLPPSRDELTKNQVSLTCLVKGFYPSDIAVEWESNGQPENNYKTTPPVLDSDGSFFLYSKLTVDKSRWQQGNVFSCSVMHEALHNHYTQKSLSLSPGK
light: ETTVTQSPAFMSATTGDKVTISCITSTDIDDDMNWYQQKPGEPPKLLISEGSTLRPGVPSRFSSSGYGTDFTFTINNIESEDAAYYYCLQSDNLPLTFGQGTKLEIKRTVAAPSVFIFPPSDEQLKSGTASVVCLLNNFYPREAKVQWKVDNALQSGNSQESVTEQDSKDSTYSLSSTLTLSKADYEKHKVYACEVTHQGLSSPVTKSFNRGEC
notes: as for B1
- EC50 [1]: 810 pM

B6: 28G04 (antibody, human IgG1, V domains shown)
VH: EVQLQQSGPELVKPGASVKISCKTSGYTFTEYTIHWVKQSHGKSLEWIGGIIPNNGGSSHKQNFKDKATLTVDKSSSTAYMELRSLTSEDSAVYYCARAGDYAFDYWGQGTTLTVSS
VL: ETTVTQSPASLSMAIGEKVTIRCITSTDIDDDMNWYQQKPGEPPKLLISEGNTLRPGVPSRFSSSGYGTDFVFTIENMLSEDVADYYCLQSGTLPFTFGSGTKLEIK
notes: Chimeric: mouse variable regions on human IgG1 LALA (L234A/L235A); also called 028G04
- EC50 [2]: 600 pM
- EC50 [3]: 8500 pM
- EC50 [4]: 7770 pM
- Kd (human CD36 (His-tagged)): 14000 pM
- koff (human CD36 (His-tagged)): 0.013 s⁻¹
- kon (human CD36 (His-tagged)): 870000 M⁻¹ s⁻¹
- IC50 of fatty acid uptake inhibition (BODIPY FL C16, HEK hCD36 cells) [5]: 90 pM
- Percent Fatty Acid Uptake Inhibition [6]: 39.7%
- EC50 [7]: 4690 pM
- IC50 of oxLDL uptake inhibition (DiI-oxLDL, SCC25 cells) [8]: 1670 pM
- EC50 [9]: 950 pM

B7: 11G06 (antibody, human IgG1, V domains shown)
VH: EVQLQQSGAELVRPGASVTLSCKASGYRFSDYEMQWVKQTPVHGLEWIGGIDPETGGIAYNQKFKVKATLTADKSSSTAFMELRSLTSEDSAVYYCTRKLDFDYWGQGTTLTVSS
VL: ETTVTQSPASLSVATGEKVTIRCITSTDIDDDMNWYQQKPGEPPKLLISEGNTLRPGVPSRFSSSGYGTDFVFTIENMLSEDVADYYCLQSDNLPLTFGAGTKLELK
- EC50 [1]: 760 pM
